B1: Protein LYRIC (Mus musculus), Q80WJ7 (parent)
chain: MAARSWQDELAQQAEEGSARLRELLSVGLGFLRTELGLDLGLEPKRYPGWVILVGTGALGLLLLFLLGYGWAAACAGARKKRRSPPRKREEAAPPTPAPDDLAQLKNLRSEEQKKKNRKKLPEKPKPNGRTVEVPEDEVVRNPRSITAKQAPETDKKNEKSKKNKKKSKSDAKAVQNSSRHDGKEVDEGAWETKISHREKRQQRKRDKVLTDSGSLDSTIPGIENIITVTTEQLTTASFPVGSKKNKGDSHLNVQVSNFKSGKGDSTLQVSSRLNENLTVNGGGWSEKSVKLSSQLSEEKWNSVPPASAGKRKTEPSAWTQDTGDTNANGKDWGRNWSDRSIFSGIGSTAEPVSQSTTSDYQWDVSRNQPYIDDEWSGLNGLSSADPSSDWNAPAEEWGNWVDEDRASLLKSQEPISNDQKVSDDDKEKGEGALPTGKSKKKKKKKKKQGEDNSHTQDTEDLEKDTREELPVNTSKARPKQEKACSLKTMSTSDPAEVLIKNSQPVKTLPPAISAEPSITLSKGDSDNSSSQVPPMLQDTDKPKSNAKQNSVPPSQTKSETNWESPKQIKKKKKARRET
partner: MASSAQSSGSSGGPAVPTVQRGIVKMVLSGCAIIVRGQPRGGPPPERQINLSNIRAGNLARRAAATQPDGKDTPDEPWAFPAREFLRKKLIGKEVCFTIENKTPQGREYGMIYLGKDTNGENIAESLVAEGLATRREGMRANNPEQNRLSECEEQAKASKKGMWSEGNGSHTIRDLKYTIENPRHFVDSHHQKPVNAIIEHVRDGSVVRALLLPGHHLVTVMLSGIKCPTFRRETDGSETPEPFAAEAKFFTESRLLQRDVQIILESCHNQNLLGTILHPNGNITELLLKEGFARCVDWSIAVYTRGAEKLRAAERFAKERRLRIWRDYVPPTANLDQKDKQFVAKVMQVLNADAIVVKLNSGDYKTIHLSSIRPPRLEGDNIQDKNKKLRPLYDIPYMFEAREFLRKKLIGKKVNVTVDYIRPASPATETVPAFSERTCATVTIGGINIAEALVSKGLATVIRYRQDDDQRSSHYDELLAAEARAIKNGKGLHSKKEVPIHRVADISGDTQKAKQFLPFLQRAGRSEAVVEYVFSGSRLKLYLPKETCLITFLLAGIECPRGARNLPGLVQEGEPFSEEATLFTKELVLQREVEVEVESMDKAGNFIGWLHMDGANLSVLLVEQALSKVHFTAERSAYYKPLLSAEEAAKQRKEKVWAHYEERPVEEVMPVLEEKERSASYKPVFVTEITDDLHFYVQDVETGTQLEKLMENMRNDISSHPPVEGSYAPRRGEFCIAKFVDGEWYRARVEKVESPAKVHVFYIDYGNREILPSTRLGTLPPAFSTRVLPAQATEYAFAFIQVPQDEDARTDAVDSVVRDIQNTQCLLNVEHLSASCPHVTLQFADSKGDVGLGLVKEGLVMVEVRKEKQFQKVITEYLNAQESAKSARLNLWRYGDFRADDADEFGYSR

Variants of: B1
Details: with snd1_mouse Snd1, Q78PY7

Effect of a mutation on the interaction, disrupting interaction strength:
W398D
E396R;E397R;W398D
W391D
D386R;D390R;W391D
